Measurements from patent publication US10494417B2, “Peptide inhibitors of BCR-ABL oligomerization” (University of Utah Research Foundation, priority 2014, dated 2019).
Where a chain is given by its changes, count along the chain named. In names and notes the source's numbering stands. Entries after “also recorded” stand apart in the source; their conditions may differ.

Columns and labels:
[1] = target: T1, isolated CC domain from Bcr-Abl (Homo sapiens, UniProt P11274, C38A/E48R/K39E/L45D/Q60E/S41R); assay: Mammalian two-hybrid assay of coiled-coil dimerization; format: cell-based; conditions: CC^mut3 with CC^mut3
T1 construct: using the isolated CC domain from Bcr-Abl instead of the full-length protein; expressed in transfected cells
T1 sequence (P11274 1-72 C38A/K39E/S41R/L45D/E48R/Q60E): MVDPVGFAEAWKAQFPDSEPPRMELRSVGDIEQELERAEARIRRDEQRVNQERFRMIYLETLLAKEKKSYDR
Protocol: (§1) As mentioned above, the design process of CC^mut3 involved favoring hetero-dimerization with Bcr-Abl while avoiding homo-dimerization with another CC^mut3 molecule. Thus, a mammalian two-hybrid assay was performed to measure the likelihood of each scenario, using the isolated CC domain from Bcr-Abl instead of the full-length protein (for ease of use).

[2] = target: T2, isolated CC domain from Bcr-Abl (Homo sapiens, UniProt P11274); assay: as above; format: cell-based; conditions: isolated CC domain from Bcr-Abl
T2 construct: using the isolated CC domain from Bcr-Abl instead of the full-length protein; expressed in transfected cells
T2 sequence (P11274 1-72): T1 sequence (P11274 1-72 C38A/K39E/S41R/L45D/E48R/Q60E) with A38C, E39K, R41S, D45L, R48E, E60Q
Protocol: as §1

parental Ba/F3 cells = assay: Colony forming assay of transfected parental Ba/F3 cells; format: cell-based, mouse; conditions: CCmut3 vs EV
Protocol: Both EGFP and EGFP-CC^mut3 were transfected into separate groups of cells on day 0. One day following transfection, 1.0×10^6 cells per treatment group were collected and re-suspended in 1.0 mL of PBS. Through serial dilutions, 1.0×10^3 cells in IMDM (Isocove's modified Dulbecco's media) with 2% FBS were seeded into methylcellulose medium in the absence of cytokines (MethoCult H4230 for K562 cells and MethoCult M3234 for p210 and p210-T315I cells) or in the presence of cytokines (MethoCult GF M3434 for parental Ba/F3 cells). Ponatinib was then added in the correct molar amounts (0, 100 pM, 1 nM, or 10 nM) to the methylcellulose medium. Colonies formed were counted after 7 days of incubation. All reagents were purchased from Stem Cell Technologies, Vancouver, BC, Canada. Assay was run three separate times (n=3) in duplicate.
Following selection of transfected cells by cell sorting, viable cells were enumerated and seeded into methylcellulose as described previously (Dixon, A. S., et al. (2011) J. Biol. Chem. 286, 27751-27760). Briefly, mCherry-positive Ba/F3 cells were re-suspended in IMDM with 2% FBS (Stem Cell Technologies) at a concentration of 10,000 cells/mL. […] Colonies were counted 7 days later in an area of […] per dish. […]

K562 cells [3] = assay: Colony forming assay of protein-treated K562 cells; format: cell-based, human; conditions: proteins 30 μM, imatinib 1.0 μM; colonies counted after 7 days
Protocol: This experiment was carried out as before with the modifications noted below. […] 1×10^3 cells (in 1.1 mL) were seeded in a 6-well plate (CellStar), in duplicate for each treatment. 7 days after seeding cells, colonies were counted in a […] area per well. Independent treatments were tested 3 times in duplicate (n=3). All reagents for the CFA were purchased from Stem Cell Technologies, Vancouver, BC, Canada.

K562 cells [4] = assay: Nuclear (DNA) segmentation apoptosis assay in transfected K562 cells; format: cell-based, human; conditions: 48 h, vs EGFP control
Protocol: CC^mut3 was then tested for its ability to induce apoptosis in K562 cells. Apoptosis was observed using 3 different methods: 1) nuclear segmentation; 2) induction of the effector Caspase-3/7; and 3) 7AAD/Annexin V staining.
Nuclear segmentation analysis was performed as previously described (16). Briefly, immediately prior to cellular analysis, 2-well live cell chambers were treated for 15 min with poly-L-lysine (Sigma-Aldrich, St. Louis, Mo., USA), to allow cell adhesion in the wells. Forty-eight h following transfection, the transfected K562 cells were transferred to the pretreated 2-well live cell chambers. Cells were incubated for 15 min at 37° C. following the addition of 0.3 μL Hoechst H33342 nuclear stain (Life Technologies, Carlsbad, Calif., USA). Cells were then imaged using an inverted fluorescence microscope (Olympus IX701F, Scientific Instrument Co., Sunnyvale, Calif., USA) equipped with an F-view Monochrome CCD camera. Fields of view were selected based on EGFP fluorescence when viewing using a 40× oil immersion objective. Nuclei from cells that were positively transfected (positive for EGFP fluorescence) were categorized as either healthy (round or kidney-shaped nuclei) or segmented (punctate staining of nuclei), and the percentage of cells with segmented DNA was calculated (n=3 in replicate).

Ba/F3-P210 cells = assay: 7-AAD and Annexin V staining of protein-treated Ba/F3-P210 cells; format: cell-based, mouse; conditions: proteins 30 μM, imatinib 2.5 μM; 48 hours post treatment
Protocol: 0.5 μL of 1 mM 7-AAD (Invitrogen) was added to each sample, followed by a 45 minute incubation on ice. […] Analysis was performed using the FACS Canto-II (BD BioSciences, University of Utah Core Facility) with FACS Diva software. 7-AAD and APC were excited at 488 and 635 nm wavelengths, and emissions were detected at 660 nm. Percentage of apoptosis/necrosis was calculated by the percentage of cells that stained positive for 7-AAD and/or APC. Independent treatments were tested three times (n=3).

K562 cells [5] = assay: Cell proliferation (trypan blue) of protein-treated K562 cells; format: cell-based, human; conditions: proteins 30 μM or imatinib
Protocol: Independent treatments were tested three times (n=3).

B1: CCmut3: modified Bcr-Abl coiled-coil domain (residues 1-72) with mutations C38A, K39E, S41R, L45D, E48R, Q60E (protein)
chain: T1 sequence (P11274 1-72 C38A/K39E/S41R/L45D/E48R/Q60E)
homo-oligomerization [1]: strongly disfavoring homo-oligomerization | hetero-dimerization with BCR-ABL [2]: favors hetero-dimerization; also recorded: strongly favors hetero-dimerization | colony formation, in words (parental Ba/F3 cells): not affected; also recorded: no effect on parental Ba/F3 controls | colony formation, in words (parental Ba/F3 cells; listed as CC^mut3): not affected; also recorded: no difference between treatment groups | colony forming (transformative ability) (K562 cells [3]): ineffective at reducing cell proliferation and colony forming compared to untreated cells | induction of apoptosis (nuclear/DNA segmentation) (K562 cells [4]): increase in apoptosis; also recorded: significantly induced apoptosis | induction of apoptosis (nuclear/DNA segmentation) (K562 cells [4]; listed as CC^mut3): induces apoptosis; also recorded: causing apoptosis via nuclear segmentation | induction of apoptosis/necrosis (Ba/F3-P210 cells): not statistically different from the untreated control | cell proliferation (K562 cells [5]): ineffective at reducing cell proliferation and colony forming compared to untreated cells
